In experiment [1] the target is HLA-A*02:01. The experiment is described as follows: IEDB peptide-MHC binding, purified MHC/competitive/radioactivity; filed as Kd, often an IC50 or EC50 that approximates it; ≥ and ≤ were set here for values at or beyond the usual limits of such assays.
For a further experiment, the target named is HLA-A*02:03. The description is as above.
In the next experiment the target is HLA-A*02:06. The description is as above.
The target of another experiment is HLA-A*02:17. Described as above.
For a further experiment, the target named is HLA-A*68:02. The description is as above.
The target in experiment [2] is HLA-A*26:01. Described as above. The note with it: source organism: Dengue virus 3 Martinique/1243/1999.
The target in the next experiment is HLA-B*51:01. The description is as above. As to conditions: source organism: Dengue virus 3 Martinique/1243/1999.
Experiment [3] addresses HLA-A*03:01. The experiment is described as follows: IEDB peptide-MHC binding, purified MHC/competitive/fluorescence; ≥ and ≤ were set here for values at or beyond the usual limits of such assays.
In experiment [4] the target is HLA-A*11:01. The experiment is described as above.
Another experiment deals with HLA-A*01:01. The experiment is described as follows: IEDB peptide-MHC binding, purified MHC/direct/fluorescence; filed as Kd, often an IC50 or EC50 that approximates it; ≥ and ≤ were set here for values at or beyond the usual limits of such assays.
Experiment [5] concerns the target HLA-A*02:01. The experiment is described as above.
Experiment [6] addresses HLA-A*03:01. The description is as above.
Experiment [7] has as its target HLA-A*11:01. Described as above.
In experiment [8] the target is HLA-A*26:01. Described as above.
The next experiment deals with HLA-A*31:01. The description is as above.
A further experiment concerns the target HLA-A*69:01. Described as above.
For a further experiment, the target named is HLA-B*07:02. Described as above.
Experiment [9] has as its target HLA-B*08:01. The description is as above.
In a further experiment the target is HLA-B*15:01. Described as above.
The target in a further experiment is HLA-B*27:05. The description is as above.
For the next experiment, the target named is HLA-B*35:01. The description is as above.
For another experiment, the target named is HLA-B*40:01. The description is as above.
A further experiment addresses HLA-B*44:02. The description is as above.
The target of the next experiment is HLA-B*58:01. The experiment is described as above.
For experiment [10], the target named is HLA-A*02:01. The experiment is described as follows: IEDB peptide-MHC binding, purified MHC/competitive/fluorescence; ≥ and ≤ were set here for values at or beyond the usual limits of such assays. As to conditions: source organism: Zaire ebolavirus.
A further experiment deals with HLA-C*14:02. The experiment is described as follows: IEDB peptide-MHC binding, purified MHC/direct/fluorescence; filed as Kd, often an IC50 or EC50 that approximates it; ≥ and ≤ were set here for values at or beyond the usual limits of such assays.
The target in the next experiment is HLA-A*24:03. The experiment is described as above. The note with it: source organism: Pseudomonas aeruginosa.
Experiment [11] concerns the target HLA-B*08:01. The experiment is described as follows: IEDB peptide-MHC binding, purified MHC/competitive/radioactivity; filed as Kd, often an IC50 or EC50 that approximates it; ≥ and ≤ were set here for values at or beyond the usual limits of such assays. The note with it: source organism: Dengue virus 2 Jamaica/1409/1983.
The target in a further experiment is HLA-A*24:02. The experiment is described as follows: IEDB peptide-MHC binding, purified MHC/competitive/fluorescence; ≥ and ≤ were set here for values at or beyond the usual limits of such assays. The note with it: source organism: Zaire ebolavirus.
Experiment [12] deals with HLA-A*02:01. The experiment is described as follows: IEDB peptide-MHC binding, purified MHC/competitive/fluorescence; filed as Kd, often an IC50 or EC50 that approximates it; ≥ and ≤ were set here for values at or beyond the usual limits of such assays. As to conditions: source organism: Cowpox virus.
Another experiment concerns the target HLA-A*02:12. The experiment is described as above. The note with it: source organism: Cowpox virus.
Experiment [13] addresses HLA-A*26:01. The experiment is described as above. The note with it: source organism: Escherichia coli O139:H28 str. E24377A.
[14] abbreviates: source organism: Dengue virus 2 Thailand/NGS-C/1944.
[15] abbreviates: source organism: Dengue virus 2 Peru/IQT2913/1996.
Setting [16] is: source organism: Dengue virus 3 Martinique/1243/1999.
Where [17] appears, read: source organism: Dengue virus 3 China/80-2/1980.
Setting [18] is: source organism: Dengue virus 2 Jamaica/1409/1983.
[19] abbreviates: source organism: Vibrio vulnificus.
Setting [20] is: source organism: Zaire ebolavirus.
Where [21] appears, read: source organism: Dengue virus 1 Singapore/S275/1990.
Setting [22] is: source organism: Dengue virus 1 Brazil/97-11/1997.
The mark [23] stands for this setting: source organism: Giardia lamblia ATCC 50803.
[24] abbreviates: source organism: Pseudomonas aeruginosa.

As usually defined, the Kd is the constant that tells how readily two partners part at equilibrium. Take LVISGLFPV: the Kd worked out at 2.93 nM with HLA-A*02:01 [1] (setting [14]); 3.62 nM with HLA-A*02:03 (setting [15]); 0.36 nM with HLA-A*02:06 (setting [15]); 2.17 nM with HLA-A*02:17 (setting [14]); 1.23 nM with HLA-A*68:02 (setting [15]).

Turning to FTMGVLCLAI, the dissociation constant (Kd) in the experiment with HLA-A*02:03 (setting [16]) was 9.25 nM; with HLA-A*02:06 (setting [16]), 5.39 nM; with HLA-A*02:17 (setting [17]) it was 132 nM; with HLA-A*26:01 [2] it was 1650 nM; in the experiment with HLA-A*68:02 (setting [16]), 11.1 nM; with HLA-B*51:01 it was 8620 nM.

A word on the IC50: it is the concentration that inhibits the measured activity by half. As to KIGDFGLATVK, the figures for the IC50 with HLA-A*03:01 [3] (source organism: Homo sapiens) and with HLA-A*11:01 [4] (source organism: Homo sapiens) were 415 nM and 32 nM, respectively.

With LLVISGVFPV, the Kd stood at 0.279 nM in the experiment with HLA-A*02:01 [1] (setting [18]), 17 nM with HLA-A*02:03 (setting [18]), 0.72 nM with HLA-A*02:06 (setting [18]) and 2.75 nM with HLA-A*02:17 (setting [18]).

As for NQVCIDILR, the IC50 with HLA-A*11:01 [4] (source organism: Vaccinia virus) is ≥ 205000 nM.

IVLEFFMMV: the Kd in the experiment with HLA-A*02:06 (setting [16]) is 31.7 nM; with HLA-A*02:17 (setting [17]), 131 nM; with HLA-A*68:02 (setting [16]), 558 nM.

On to DFPIFNQRY, for which the Kd with HLA-A*01:01 (setting [19]) is ≥ 20000 nM; in the experiment with HLA-A*02:01 [5] (setting [19]), ≥ 20000 nM; with HLA-A*03:01 [6] (setting [19]), ≥ 20000 nM; with HLA-A*11:01 [7] (setting [19]), ≥ 20000 nM; with HLA-A*26:01 [8] (setting [19]), 3830 nM; with HLA-A*31:01 (setting [19]), ≥ 20000 nM. The Kd in the experiment with HLA-A*69:01 (setting [19]) is ≥ 20000 nM; with HLA-B*07:02 (setting [19]), ≥ 20000 nM; with HLA-B*08:01 [9] (setting [19]) it was ≥ 20000 nM; with HLA-B*15:01 (setting [19]) it was ≥ 20000 nM; with HLA-B*27:05 (setting [19]), ≥ 20000 nM; with HLA-B*35:01 (setting [19]), 118 nM. For the same sequence, the Kd with HLA-B*40:01 (setting [19]), with HLA-B*44:02 (setting [19]) and with HLA-B*58:01 (setting [19]) was ≥ 20000 nM in each case.

Consider AVLYYHMMK, for which the IC50 with HLA-A*02:01 [10] is ≥ 311000 nM; with HLA-A*03:01 [3] (setting [20]), 1970 nM; in the experiment with HLA-A*11:01 [4] (setting [20]) it was 288 nM.

Turning to KMLMTGTLAV, the equilibrium dissociation constant (Kd) with HLA-A*02:01 [1] (setting [21]) was found to be 6.46 nM; with HLA-A*02:03 (setting [22]), 10 nM; with HLA-A*02:06 (setting [22]), 47.4 nM; in the experiment with HLA-A*02:17 (setting [21]), 444 nM.

In the experiment with HLA-C*14:02 (source organism: Mycobacterium tuberculosis variant bovis BCG str. Pasteur 1173P2), KMNAKAATL showed a Kd of 146 nM.

For QHTRRVSVL, the Kd with HLA-A*01:01 (setting [23]) is ≥ 20000 nM; in the experiment with HLA-A*02:01 [5] (setting [23]), 10100 nM; in the experiment with HLA-A*03:01 [6] (setting [23]), ≥ 20000 nM; with HLA-A*11:01 [7] (setting [23]) it was ≥ 20000 nM; in the experiment with HLA-A*26:01 [8] (setting [23]), 5180 nM; with HLA-A*31:01 (setting [23]), ≥ 10000 nM. The Kd was ≥ 20000 nM in the experiment with HLA-A*69:01 (setting [23]); ≥ 20000 nM with HLA-B*07:02 (setting [23]); 534 nM in the experiment with HLA-B*08:01 [9] (setting [23]); ≥ 20000 nM in the experiment with HLA-B*15:01 (setting [23]); 1300 nM with HLA-B*35:01 (setting [23]); ≥ 20000 nM with HLA-B*44:02 (setting [23]).

For the sequence VVAVGGLAI, the Kd in the experiment with HLA-A*01:01 (setting [24]), with HLA-A*02:01 [5] (setting [24]), in the experiment with HLA-A*03:01 [6] (setting [24]), with HLA-A*11:01 [7] (setting [24]), in the experiment with HLA-A*24:03 and with HLA-A*26:01 [8] (setting [24]) was ≥ 20000 nM in each case. Also, the Kd is ≥ 20000 nM with HLA-A*31:01 (setting [24]); 251 nM in the experiment with HLA-B*07:02 (setting [24]); ≥ 20000 nM in the experiment with HLA-B*08:01 [9] (setting [24]); 144 nM with HLA-B*15:01 (setting [24]); ≥ 20000 nM in the experiment with HLA-B*27:05 (setting [24]); 6120 nM in the experiment with HLA-B*35:01 (setting [24]). Moreover, the Kd with HLA-B*40:01 (setting [24]) and with HLA-B*58:01 (setting [24]) was ≥ 20000 nM throughout.

For LMGLGKGWPL, the Kd with HLA-A*02:01 [1] (setting [18]) was determined as 162 nM; with HLA-A*02:17 (setting [18]) it was 917 nM; with HLA-B*08:01 [11] it was 304 nM.

Consider LLTGGAMLFL, for which the values for the Kd in the experiment with HLA-A*02:01 [1] (setting [17]) and with HLA-A*02:17 (setting [17]) were 47.4 nM and 347 nM, respectively.

Regarding IYIEGLMHN, the IC50 in the experiment with HLA-A*03:01 [3] (setting [20]) was ≥ 211000 nM; with HLA-A*11:01 [4] (setting [20]) it was 36100 nM; with HLA-A*24:02, 2630 nM.

On to ATAHGSTLA, for which the IC50 with HLA-A*02:01 [10] is 54300 nM; in the experiment with HLA-A*11:01 [4] (setting [20]), 43100 nM.

As to VKNEVNSFK, the IC50 with HLA-A*03:01 [3] (setting [20]) came to 47100 nM; with HLA-A*11:01 [4] (setting [20]), 39100 nM.

With VLLLTIGLSL, the Kd with HLA-A*02:01 [1] (setting [21]) was 5.24 nM; in the experiment with HLA-A*02:17 (setting [21]), 3910 nM.

For the sequence NMNNDSYYF, the results for the Kd with HLA-A*02:01 [12] and with HLA-A*02:12 were 11.3 nM and 76.5 nM, respectively.

For LPQTRWQAV, the Kd in the experiment with HLA-A*01:01 (setting [24]), with HLA-A*02:01 [5] (setting [24]), in the experiment with HLA-A*03:01 [6] (setting [24]), with HLA-A*11:01 [7] (setting [24]), in the experiment with HLA-A*24:03 and in the experiment with HLA-A*26:01 [8] (setting [24]) was ≥ 20000 nM each time. The Kd in the experiment with HLA-A*31:01 (setting [24]) was ≥ 20000 nM; in the experiment with HLA-A*69:01 (setting [24]), ≥ 20000 nM; in the experiment with HLA-B*07:02 (setting [24]), 28.3 nM; with HLA-B*08:01 [9] (setting [24]), 189 nM; in the experiment with HLA-B*15:01 (setting [24]) it was ≥ 20000 nM; with HLA-B*27:05 (setting [24]), ≥ 20000 nM. The Kd with HLA-B*35:01 (setting [24]) is 88 nM; with HLA-B*40:01 (setting [24]), ≥ 20000 nM; in the experiment with HLA-B*58:01 (setting [24]), ≥ 20000 nM.

For the sequence GTSNRTPTV, the IC50 with HLA-A*02:01 [10] is 1300 nM; in the experiment with HLA-A*03:01 [3] (setting [20]) it was 57200 nM; with HLA-A*11:01 [4] (setting [20]) it was ≥ 128000 nM.

ACPDNLLRL: the Kd was 1100 nM with HLA-C*14:02 (source organism: Escherichia coli O139:H28 str. E24377A) and ≥ 20000 nM in the experiment with HLA-A*26:01 [13].

Regarding FMTATPPGSV, the Kd worked out at 72.8 nM with HLA-A*02:01 [1] (setting [21]), 1.67 nM in the experiment with HLA-A*02:03 (setting [22]), 671 nM with HLA-A*02:06 (setting [22]) and 3100 nM with HLA-A*02:17 (setting [21]).
